Measured values: patent US20240409935A1 (UNM RAINFOREST INNOVATIONS, published 2024)

T1: FLAG-ALIX (full length) (UniProt Q8WUM4 1-868)
T1 construct: also called full-length ALIX; not shown: FLAG tag
T1 sequence (looked up): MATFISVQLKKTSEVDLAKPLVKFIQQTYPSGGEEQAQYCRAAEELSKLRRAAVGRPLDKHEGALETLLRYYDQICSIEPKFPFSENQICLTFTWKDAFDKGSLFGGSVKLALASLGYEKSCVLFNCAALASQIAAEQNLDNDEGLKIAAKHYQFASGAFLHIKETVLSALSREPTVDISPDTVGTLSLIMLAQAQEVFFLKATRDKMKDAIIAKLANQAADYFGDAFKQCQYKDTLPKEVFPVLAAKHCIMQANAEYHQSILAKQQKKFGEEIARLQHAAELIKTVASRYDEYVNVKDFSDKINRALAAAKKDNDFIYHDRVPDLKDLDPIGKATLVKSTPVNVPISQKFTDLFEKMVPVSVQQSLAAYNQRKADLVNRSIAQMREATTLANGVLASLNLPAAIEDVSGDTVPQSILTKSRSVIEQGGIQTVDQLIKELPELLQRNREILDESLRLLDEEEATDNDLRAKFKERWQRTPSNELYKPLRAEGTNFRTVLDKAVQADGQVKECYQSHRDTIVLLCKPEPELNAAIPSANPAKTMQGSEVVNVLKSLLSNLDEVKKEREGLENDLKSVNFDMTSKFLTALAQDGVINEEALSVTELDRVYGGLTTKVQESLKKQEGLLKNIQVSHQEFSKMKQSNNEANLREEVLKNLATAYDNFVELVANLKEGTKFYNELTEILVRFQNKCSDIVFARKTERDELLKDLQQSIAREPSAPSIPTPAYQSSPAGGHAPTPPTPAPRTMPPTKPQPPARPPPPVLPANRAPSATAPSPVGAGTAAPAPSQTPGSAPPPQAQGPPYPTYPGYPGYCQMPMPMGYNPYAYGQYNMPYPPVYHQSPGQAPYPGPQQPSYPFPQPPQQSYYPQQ

B1: endogenous PACT (other, UniProt O75569 1-313, looked up)
chain: MSQSRHRAEAPPLEREDSGTFSLGKMITAKPGKTPIQVLHEYGMKTKNIPVYECERSDVQIHVPTFTFRVTVGDITCTGEGTSKKLAKHRAAEAAINILKANASICFAVPDPLMPDPSKQPKNQLNPIGSLQELAIHHGWRLPEYTLSQEGGPAHKREYTTICRLESFMETGKGASKKQAKRNAAEKFLAKFSNISPENHISLTNVVGHSLGCTWHSLRNSPGEKINLLKRSLLSIPNTDYIQLLSEIAKEQGFNITYLDIDELSANGQYQCLAELSTSPITVCHGSGISCGNAQSDAAHNALQYLKIIAERK
notes: also called PRKRA
B2: GFP-PACT (other, UniProt O75569 1-313, looked up)
chain: B1 chain
notes: not shown: GFP
B3: ALIX (cellular) (other, UniProt Q8WUM4 2-868, looked up)
chain: ATFISVQLKKTSEVDLAKPLVKFIQQTYPSGGEEQAQYCRAAEELSKLRRAAVGRPLDKHEGALETLLRYYDQICSIEPKFPFSENQICLTFTWKDAFDKGSLFGGSVKLALASLGYEKSCVLFNCAALASQIAAEQNLDNDEGLKIAAKHYQFASGAFLHIKETVLSALSREPTVDISPDTVGTLSLIMLAQAQEVFFLKATRDKMKDAIIAKLANQAADYFGDAFKQCQYKDTLPKEVFPVLAAKHCIMQANAEYHQSILAKQQKKFGEEIARLQHAAELIKTVASRYDEYVNVKDFSDKINRALAAAKKDNDFIYHDRVPDLKDLDPIGKATLVKSTPVNVPISQKFTDLFEKMVPVSVQQSLAAYNQRKADLVNRSIAQMREATTLANGVLASLNLPAAIEDVSGDTVPQSILTKSRSVIEQGGIQTVDQLIKELPELLQRNREILDESLRLLDEEEATDNDLRAKFKERWQRTPSNELYKPLRAEGTNFRTVLDKAVQADGQVKECYQSHRDTIVLLCKPEPELNAAIPSANPAKTMQGSEVVNVLKSLLSNLDEVKKEREGLENDLKSVNFDMTSKFLTALAQDGVINEEALSVTELDRVYGGLTTKVQESLKKQEGLLKNIQVSHQEFSKMKQSNNEANLREEVLKNLATAYDNFVELVANLKEGTKFYNELTEILVRFQNKCSDIVFARKTERDELLKDLQQSIAREPSAPSIPTPAYQSSPAGGHAPTPPTPAPRTMPPTKPQPPARPPPPVLPANRAPSATAPSPVGAGTAAPAPSQTPGSAPPPQAQGPPYPTYPGYPGYCQMPMPMGYNPYAYGQYNMPYPPVYHQSPGQAPYPGPQQPSYPFPQPPQQSYYPQQ
notes: also called PDCD6IP
B4: Myc-PKR (enzyme, UniProt P19525 1-551, looked up)
chain: MAGDLSAGFFMEELNTYRQKQGVVLKYQELPNSGPPHDRRFTFQVIIDGREFPEGEGRSKKEAKNAAAKLAVEILNKEKKAVSPLLLTTTNSSEGLSMGNYIGLINRIAQKKRLTVNYEQCASGVHGPEGFHYKCKMGQKEYSIGTGSTKQEAKQLAAKLAYLQILSEETSVKSDYLSSGSFATTCESQSNSLVTSTLASESSSEGDFSADTSEINSNSDSLNSSSLLMNGLRNNQRKAKRSLAPRFDLPDMKETKYTVDKRFGMDFKEIELIGSGGFGQVFKAKHRIDGKTYVIKRVKYNNEKAEREVKALAKLDHVNIVHYNGCWDGFDYDPETSDDSLESSDYDPENSKNSSRSKTKCLFIQMEFCDKGTLEQWIEKRRGEKLDKVLALELFEQITKGVDYIHSKKLIHRDLKPSNIFLVDTKQVKIGDFGLVTSLKNDGKRTRSKGTLRYMSPEQISSQDYGKEVDLYALGLILAELLHVCDTAFETSKFFTDLRDGIISDIFDKKEKTLLQKLLSKKPEDRPNTSEILRTLTVWKKSPEKNERHTC
notes: not shown: Myc tag
B5: GFP-PKR (enzyme, UniProt P19525 1-551, looked up)
chain: B4 chain
notes: not shown: GFP
B6: endogenous PKR (enzyme, UniProt P19525 2-551, looked up)
chain: AGDLSAGFFMEELNTYRQKQGVVLKYQELPNSGPPHDRRFTFQVIIDGREFPEGEGRSKKEAKNAAAKLAVEILNKEKKAVSPLLLTTTNSSEGLSMGNYIGLINRIAQKKRLTVNYEQCASGVHGPEGFHYKCKMGQKEYSIGTGSTKQEAKQLAAKLAYLQILSEETSVKSDYLSSGSFATTCESQSNSLVTSTLASESSSEGDFSADTSEINSNSDSLNSSSLLMNGLRNNQRKAKRSLAPRFDLPDMKETKYTVDKRFGMDFKEIELIGSGGFGQVFKAKHRIDGKTYVIKRVKYNNEKAEREVKALAKLDHVNIVHYNGCWDGFDYDPETSDDSLESSDYDPENSKNSSRSKTKCLFIQMEFCDKGTLEQWIEKRRGEKLDKVLALELFEQITKGVDYIHSKKLIHRDLKPSNIFLVDTKQVKIGDFGLVTSLKNDGKRTRSKGTLRYMSPEQISSQDYGKEVDLYALGLILAELLHVCDTAFETSKFFTDLRDGIISDIFDKKEKTLLQKLLSKKPEDRPNTSEILRTLTVWKKSPEKNERHTC
notes: also called EIF2AK2; Protein Kinase R

Legend:
FLAG-eIF2α = molecular target: T2, FLAG-eIF2α (UniProt P05198 1-315); assay: co-IP with anti-FLAG from HEK293T cells, 1 mM LLOMe 30 min
T2 construct: not shown: FLAG tag
T2 sequence (P05198 whole entry): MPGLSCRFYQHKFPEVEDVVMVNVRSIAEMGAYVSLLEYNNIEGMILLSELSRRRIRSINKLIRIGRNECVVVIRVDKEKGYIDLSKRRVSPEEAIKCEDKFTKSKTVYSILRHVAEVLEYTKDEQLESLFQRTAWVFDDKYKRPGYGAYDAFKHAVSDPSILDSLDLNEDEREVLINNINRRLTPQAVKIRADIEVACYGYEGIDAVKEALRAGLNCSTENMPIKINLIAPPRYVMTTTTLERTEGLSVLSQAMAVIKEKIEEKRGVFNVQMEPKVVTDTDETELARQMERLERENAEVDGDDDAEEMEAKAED

FLAG-ALIX (full length) [1] = molecular target: T1, FLAG-ALIX (full length); assay: as above
FLAG-PKR = molecular target: T3, FLAG-PKR (UniProt P19525 1-551); assay: co-IP of FLAG-PKR and PACT in HEK293T cells
T3 construct: not shown: FLAG tag

endogenous PKR = molecular target: B6; assay: co-IP with anti-GFP from HEK293T cells transfected with FLAG or FLAG-ALIX, 1 mM LLOMe 30 min
ALIX (cellular) = molecular target: B3; assay: confocal microscopy of GFP-PKR/PACT and ALIX in U2OS cells, 2 mM LLOMe
APEX2-eIF2α = molecular target: T4, APEX2-eIF2α (UniProt P05198 1-315); assay: APEX2-eIF2α proximity biotinylation, LC/MS/MS, LLOMe against control
T4 construct: also called APEX2-eIF2α fusion
T4 sequence (P05198 whole entry, the tested form may be a part): as the sequence (P05198 whole entry) above

FLAG-ALIX (full length) [2] = molecular target: T1, FLAG-ALIX (full length); assay: co-IP with anti-FLAG from HEK293T cells expressing FLAG tagged ALIX constructs and Myc-PKR

B1
binding result (FLAG-eIF2α): binds | binding result (FLAG-ALIX (full length) [1]): binds | binding result (FLAG-PKR): binds

B2
binding result (endogenous PKR): binds | binding result (ALIX (cellular)): binds

B3
fold increase in association with eIF2α (LLOMe/CTR) (APEX2-eIF2α): > 10 fold

B4
binding result (FLAG-ALIX (full length) [2]): binds

B5
binding result (ALIX (cellular)): binds

B6
binding result (FLAG-ALIX (full length) [1]): binds
